Measurements as given in US20130115220A1, “METHOD FOR PREVENTION OR TREATMENT OF METABOLIC SYNDROME” (DAINIPPON SUMITOMO PHARMA CO., LTD., priority 2010, published 2013).

Tests used:
3T3-L1 preadipocytes = assay: Differentiation of 3T3-L1 preadipocytes into mature adipocytes, lipid droplet formation by oil-red-O; format: cell-based
Experimental: To examine the function of AIM produced by macrophage that infiltrated into adipose tissue on the surrounding adipocytes, an experiment was performed to load AIM in the culture process for differentiation of 3T3-L1 preadipocytes into mature adipocytes.
As AIM, recombinant AIM protein (rAIM) of mouse was used. rAIM was prepared by culturing human-derived HEK293T cells transfected with a vector expressing mouse AIM (pCAGGS-mAIM-HA plasmid) in a serum-free medium (FreeStyle™ 293 Expression Medium; Invitrogen). rAIM was purified from the culture supernatant thereof using an anti-HA antibody column. In other Reference Examples shown below, AIM used was a similar rAIM protein. AIM was loaded by adding AIM to a culture medium at a concentration of 5 μg/ml.
In addition, differentiation of 3T3-L1 cells was induced as shown in FIG. 13 by first proliferating 3T3-L1 cells by cultivating for 4 days (day(−2)-day 2), after which cultivating in a culture medium containing insulin, dexamethasone (DEX) and isobutylmethylxanthine (IBMX) for 2 days (day 2-day 4) to start differentiation induction stimulation, and further cultivating in a culture medium containing insulin for 2 days (day 4-day 6).
After the differentiation induction stimulation period (day 2-day 6), the cells were continuously cultured in a culture medium free of such differentiation induction stimulation factors. Then, the cells on day 10 day from the start of the differentiation induction stimulation (day 12) were stained with oil-red-O, and the state of differentiation of 3T3-L1 cells into mature adipocytes was observed.

3T3-L1 cells [1] = assay: Expression of adipocyte markers by quantitative real-time PCR; format: cell-based, mouse; conditions: day 12
Experimental: The cells cultured in schedules A-D shown in FIG. 13 were recovered on day 10 from the start of the differentiation induction stimulation (day 12), and expression of adipocyte markers (C/EBPα, PPARγ1, PPARγ2, CD36, Glut4) at mRNA level was measured using 7500 Fast Real-Time PCR system (Invitrogen; CA, USA) by ΔΔCT method.

[2] = tested on: differentiated 3T3-L1 cells; assay: Lipid droplet fusion in differentiated 3T3-L1 cells, oil-red-O; format: cell-based, mouse; conditions: rAIM 5 μg/ml
Experimental: The differentiated 3T3-L1 cells were loaded with rAIM (5 μg/ml) according to the schedule shown in FIG. 13, E. The oil-red-0 staining was performed before and after rAIM loading.
The relative size of lipid droplet (Relative droplet size) was determined from an average diameter of 50 lipid droplets. […] The number of cells containing lipid droplets per unit area was measured in 5 different fields and the average was determined.

3T3-L1 adipocytes = assay: Expression of lipid droplet formation-related genes and PREF-1 by real-time PCR; format: cell-based, mouse; conditions: rAIM 5 μg/ml
Experimental: rAIM was loaded (5 μg/ml) on 3T3-L1 adipocytes, mRNA of lipid droplet formation-related genes (FSP27, Perilipin, and Adipophilin) was measured on day 2, day 4, and day 6 using 7500 Fast Real-Time PCR system (Invitrogen; CA, USA) and by the ΔΔCT method (each n=3).
Similarly, mRNA of PREF-1 of preadipocyte marker was also measured. The measurement value was standardized with GAPDH.
Relative expression level was determined with that on day 0 as 1.0.

3T3-L1 cells [3] = assay: rAIM uptake into 3T3-L1 cells by staining; format: cell-based, mouse
Experimental: Differentiated 3T3-L1 cells (ins/DEX/IBMX stimulation (+)) and undifferentiated 3T3-L1 cells (ins/DEX/IBMX stimulation (−)) were incubated with rAIM (5 μg/ml) for 3 hr, and stained with AIM, PPARγ2, and DAPI. For staining with PPARγ2, a rabbit anti-PPARγ2 polyclonal antibody (Abcam plc) was used.
In addition, 3T3-L1 adipocytes were treated with rAIM for 3 hr, stained with AIM and endosome (FM 1-43FX (Invitrogen Corporation) was used), AIM and lysosome (Lyso Tracker Red DND-99 (Invitrogen Corporation) was used), and observed under a confocal microscope.

AIM-/- mice = assay: Body weight and fat amount of HFD-fed AIM-/- mice; format: in vivo; conditions: AIM-/- mice on HFD, intraperitoneal 300 μg/injection/mouse twice a week, 5 weeks, versus BSA
Experimental: Then, rAIM was intraperitoneally administered twice a week (n=6; 300 μg/injection/mouse) to AIM^−/− mice for 5 weeks while feeding with HFD, and the body weight and adipose tissue amount were measured.

FAS = FAS (Mus musculus, UniProt P19096); assay: FAS activity of adipose tissue of AIM-/- mice after intraadipose topical injection; format: in vivo; design: endogenous in cells; host or cells: 3T3-L1 adipocytes (treated cells, then lysed); conditions: AIM-/- mice fed HFD 20 weeks, rAIM injected into adipose 3 hr before, versus BSA
Chain of FAS (P19096 whole entry): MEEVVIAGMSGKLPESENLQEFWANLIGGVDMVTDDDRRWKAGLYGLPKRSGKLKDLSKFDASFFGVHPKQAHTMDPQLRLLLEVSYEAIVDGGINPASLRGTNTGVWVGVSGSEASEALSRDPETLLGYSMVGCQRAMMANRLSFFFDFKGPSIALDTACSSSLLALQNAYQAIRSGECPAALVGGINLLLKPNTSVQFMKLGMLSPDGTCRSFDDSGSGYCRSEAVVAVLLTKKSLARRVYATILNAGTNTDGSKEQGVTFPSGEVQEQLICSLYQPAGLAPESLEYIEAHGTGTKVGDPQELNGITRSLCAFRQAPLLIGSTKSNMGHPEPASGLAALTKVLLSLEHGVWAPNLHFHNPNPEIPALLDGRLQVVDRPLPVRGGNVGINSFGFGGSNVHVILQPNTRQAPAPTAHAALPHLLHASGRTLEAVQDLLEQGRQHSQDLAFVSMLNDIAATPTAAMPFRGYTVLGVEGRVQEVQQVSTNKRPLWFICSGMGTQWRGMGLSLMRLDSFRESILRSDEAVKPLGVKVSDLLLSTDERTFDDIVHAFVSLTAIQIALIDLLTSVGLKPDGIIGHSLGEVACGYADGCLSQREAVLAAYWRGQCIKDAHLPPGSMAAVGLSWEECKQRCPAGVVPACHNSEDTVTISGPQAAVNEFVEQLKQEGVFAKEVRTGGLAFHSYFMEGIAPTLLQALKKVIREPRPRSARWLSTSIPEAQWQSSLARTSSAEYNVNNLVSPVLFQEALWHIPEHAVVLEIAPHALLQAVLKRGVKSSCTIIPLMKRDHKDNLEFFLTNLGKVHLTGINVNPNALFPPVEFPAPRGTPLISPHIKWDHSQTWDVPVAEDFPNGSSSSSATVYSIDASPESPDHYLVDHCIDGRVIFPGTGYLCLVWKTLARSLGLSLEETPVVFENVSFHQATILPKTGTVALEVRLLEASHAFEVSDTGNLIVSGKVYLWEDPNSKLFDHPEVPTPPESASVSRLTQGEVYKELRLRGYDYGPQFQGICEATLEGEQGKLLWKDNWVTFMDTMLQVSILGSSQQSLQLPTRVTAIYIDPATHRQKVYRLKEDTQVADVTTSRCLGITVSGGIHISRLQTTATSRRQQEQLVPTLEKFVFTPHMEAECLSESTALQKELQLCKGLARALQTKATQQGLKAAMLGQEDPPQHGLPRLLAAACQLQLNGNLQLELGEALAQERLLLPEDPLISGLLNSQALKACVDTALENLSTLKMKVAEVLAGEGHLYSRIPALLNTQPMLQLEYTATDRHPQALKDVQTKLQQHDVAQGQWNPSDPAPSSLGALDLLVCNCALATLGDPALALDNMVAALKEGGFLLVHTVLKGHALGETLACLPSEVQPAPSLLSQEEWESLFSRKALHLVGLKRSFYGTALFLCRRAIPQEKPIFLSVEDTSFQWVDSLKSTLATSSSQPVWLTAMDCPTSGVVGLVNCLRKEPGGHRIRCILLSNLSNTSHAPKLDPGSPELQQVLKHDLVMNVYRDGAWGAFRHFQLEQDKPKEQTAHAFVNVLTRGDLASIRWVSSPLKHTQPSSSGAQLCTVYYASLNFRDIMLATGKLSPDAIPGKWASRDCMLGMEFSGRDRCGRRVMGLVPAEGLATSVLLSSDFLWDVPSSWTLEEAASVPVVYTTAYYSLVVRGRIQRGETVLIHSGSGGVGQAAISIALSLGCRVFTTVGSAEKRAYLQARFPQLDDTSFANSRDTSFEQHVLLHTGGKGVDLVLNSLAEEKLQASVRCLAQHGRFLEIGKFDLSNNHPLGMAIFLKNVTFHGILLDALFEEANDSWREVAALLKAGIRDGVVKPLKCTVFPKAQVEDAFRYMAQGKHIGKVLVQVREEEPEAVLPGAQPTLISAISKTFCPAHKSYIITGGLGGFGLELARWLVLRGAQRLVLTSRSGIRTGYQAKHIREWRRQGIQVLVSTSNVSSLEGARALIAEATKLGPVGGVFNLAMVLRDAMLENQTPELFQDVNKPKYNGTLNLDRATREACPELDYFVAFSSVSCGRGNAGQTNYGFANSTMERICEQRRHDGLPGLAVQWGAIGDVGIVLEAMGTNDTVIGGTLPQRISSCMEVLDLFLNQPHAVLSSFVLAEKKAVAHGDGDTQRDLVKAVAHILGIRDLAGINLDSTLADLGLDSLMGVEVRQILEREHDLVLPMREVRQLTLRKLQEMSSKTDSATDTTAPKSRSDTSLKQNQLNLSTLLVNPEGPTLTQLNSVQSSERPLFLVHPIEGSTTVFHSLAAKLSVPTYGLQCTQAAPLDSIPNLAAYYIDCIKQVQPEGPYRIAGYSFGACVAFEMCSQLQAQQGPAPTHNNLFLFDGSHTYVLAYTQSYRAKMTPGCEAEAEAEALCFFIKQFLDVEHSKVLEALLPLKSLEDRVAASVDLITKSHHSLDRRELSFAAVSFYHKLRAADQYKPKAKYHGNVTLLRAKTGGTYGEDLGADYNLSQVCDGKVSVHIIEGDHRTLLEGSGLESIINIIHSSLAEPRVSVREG
Experimental: The influence of AIM on FAS activity of adipocyte or adipose tissue was examined. FAS activity was measured by the method of Kelley (Kelley et al., Biochem. J., 1986, 235:87-90) with slight modification. 3T3-L1 adipocytes, or lysates of adipose tissue of obese mice was mixed with acetyl-CoA and NADPH (0.2 M […] phosphate buffer [pH 7.0] containing 0.4 mM EDTA), and the mixture was placed in a spectrophotometer cuvette and maintained at 30° C. 20 μl of malonyl-CoA solution (0.2 mM) was added to start an enzyme reaction and decrease of OD was measured at a chart speed 2 cm/min. Based on the results, the enzyme activity of FAS was evaluated using the molar extinction coefficient of […] NADPH as 6220.
First, the FAS activity of 3T3-L1 cells treated for 6 days in the presence or absence of rAIM (5 μg/ml), and in the presence of C75 (25 μM) was measured. Moreover, the FAS activity of adipose tissues of AIM^+/+ mice and AIM^−/− mice and the FAS activity of adipose tissue of AIM^−/− mice administered with rAIM or BSA 3 hr before by intraadipose topical injection are shown in FIGS. 28 and 29, respectively.
All mice were fed with HFD for 20 weeks. The samples were dissolved (lysed) and the FAS activity was measured. The data was converted to that based on FAS protein, according to the results of WB performed using the same sample.

B1: rAIM: recombinant AIM protein (rAIM) of mouse, HA-tagged, prepared in HEK293T cells (protein)
chain: ESPTKVQLVGGAHRCEGRVEVEHNGQWGTVCDDGWDRRDVAVVCRELNCGAVIQTPRGASYQPPASEQRVLIQGVDCNGTEDTLAQCELNYYVFDCSHEEDAGAQCENPDSDLLFIPEDVRLVDGPGHCQGRVEVLHQSQWSTVCKAGWNLQVSKVVCRQLGCGRALLTYGSCNKNTQGKGPIWMGKMSCSGQEANLRSCLLSRLENNCTHGEDTWMECEDPFELKLVGGDTPCSGRLEVLHKGSWGSVCDDNWGEKEDQVVCKQLGCGKSLHPSPKTRKIYGPGAGRIWLDDVNCSGKEQSLEFCRHRLWGYHDCTHKEDVEVICTDFDV
modifications: left off: small tags and cut ends
notes: recombinant AIM protein (rAIM) of mouse, HA-tagged, prepared in HEK293T cells
For B1, the differentiation suppressive effect (3T3-L1 preadipocytes; AIM concentration decreased to 1 μg/ml and 0.1 μg/ml) was “decreased”, the “differentiation of 3T3-L1 cells into adipocytes” value (3T3-L1 preadipocytes; AIM continuously loaded day(-2)-day 12) was “completely suppressed” and the “number of dead cells” value (3T3-L1 preadipocytes; AIM loading on 3T3-L1 cells) was “did not increase”. The “differentiation of 3T3-L1 cells (cells having lipid droplet, oil-red-O, day 12)” value (3T3-L1 preadipocytes; schedule B, AIM 5 μg/ml loaded day 2-day 12) was “nearly completely suppressed”, the “differentiation of 3T3-L1 cells (cells having lipid droplet, oil-red-O, day 12)” value (3T3-L1 preadipocytes; schedule C, AIM 5 μg/ml loaded only day 2-day 4) was “nearly completely suppressed” and the “differentiation of 3T3-L1 cells into mature adipocytes” value (3T3-L1 preadipocytes; schedule D, AIM loaded only before differentiation induction, day(-2)-day 2) was “not suppressed”. The “expression of adipocyte markers (C/EBPα, PPARγ1, PPARγ2, CD36, Glut4) mRNA” value (“expression of adipocyte markers” below) (3T3-L1 cells [1]; schedule B) was “suppressed”, the “expression of adipocyte markers” value (3T3-L1 cells [1]; schedule D as printed, AIM administered simultaneously with differentiation induction stimulation) was “suppressed” and the “expression of adipocyte markers” value (3T3-L1 cells [1]; schedule D, AIM only before differentiation induction) was “expressed”. For the same molecule, the “number of lipid droplet-containing cells per unit area” value ([2]; 6 days) was “significantly decreased”, the “relative size of lipid droplets” value ([2]; 6 days) was “significantly decreased” and the “lipid droplet in the cell (oil-red-O)” value ([2]; 6 days of culture) was “markedly decreased”. For the same molecule, the “expression of lipid droplet formation-related genes (FSP27, Perilipin, Adipophilin)” value (3T3-L1 adipocytes; day 2, relative to day 0) was “decreased markedly”, the “expression of preadipocyte markers (PREF-1)” value (3T3-L1 adipocytes; during rAIM treatment) was “did not increase” and the “intracellular localization of incorporated rAIM (endosome, lysosome staining)” value (3T3-L1 cells [3]; 3T3-L1 adipocytes, rAIM 3 hr, confocal microscope) was “co-localized with endosome”. The rAIM uptake efficiency (3T3-L1 cells [3]; cells showing low expression of PPARγ2, rAIM 5 μg/ml, 3 hr) was “markedly low”, the “rAIM uptake (cells containing rAIM per 100 cells)” value (3T3-L1 cells [3]; mature adipocytes highly expressing PPARγ2, rAIM 5 μg/ml, 3 hr) was “efficient rAIM uptake” and the rAIM uptake (3T3-L1 cells [3]; preadipocytes free of differentiation induction stimulation, rAIM 5 μg/ml, 3 hr) was “no rAIM uptake”. For the same molecule, the “increase in body weight” value (AIM-/- mice) was “significantly small increase”, the “increase in subcutaneous fat” value (AIM-/- mice) was “significantly small increase” and the “increase in visceral fat” value (AIM-/- mice) was “significantly small increase”. For the same molecule, the “FAS activity in adipose tissue” value (FAS) was “decreased”.
